Laboratory results as given in patent US20180000925.

Target: recombinant HCV E2 protein (eEnzyme)

B1: CD45 (Enzo Life Sciences) (protein)
chain: SCNLDEQQELVERDDEKQLMNVEPIHADILLETYKRKIADEGRLFLAEFQSIPRVFSKFPIKEARKPFNQNKNRYVDILPYDYNRVELSEINGDAGSNYINASYIDGFKEPRKYIAAQGPRDETVDDFWRMIWEQKATVIVMVTRCEEGNRNKCAEYWPSMEEGTRAFGDVVVKINQHKRCPDYIIQKLNIVNKKEKATGREVTHIQFTSWPDHGVPEDPHLLLKLRRRVNAFSNFFSGPIVVHCSAGVGRTGTYIGIDAMLEGLEAENKVDVYGYVVKLRRQRCLMVQVEAQYILIHQALVEYNQFGETEVNLSELHPYLHNMKKRDPPSEPSPLEAEFQRLPSYRSWRTQHIGNQEENKSKNRNSNVIPYDYNRVPLKHELEMSKESEHDSDESSDDDSDSEEPSKYINASFIMSYWKPEVMIAAQGPLKETIGDFWQMIFQRKVKVIVMLTELKHGDQEICAQYWGEGKQTYGDIEVDLKDTDKSSTYTLRVFELRHSKRKDSRTVYQYQYTNWSVEQLPAEPKELISMIQVVKQKLPQKNSSEGNKHHKSTPLLIHCRDGSQQTGIFCALLNLLESAETEEVVDIFQVVKALRKARPGMVSTFEQYQFLYDVIASTYPAQNGQVKKNNHQEDKIEFDNEVDKVKQDANCVNPLGAPEKLPEAKEQAEGSEPTSGTEGPEHSVNGPASPALNQGS
  dephosphorylation in an in vitro reaction (phosphotyrosine immunoblot): dephosphorylated by CD45
